Common to all, as to assay: In-vitro kinetic assay with purified recombinant GCase
Format in all cases: biochemical
Holding throughout (conditions): other: 30° C., citrate-phosphate buffer 150 mM, pH 5.4, 0.25% taurodeoxycholate, GCase 2.5 nM

Substrate in data set [1]: COc1cc(/N=N/c2ccc([N+](=O)[O-])cc2)c(OC)cc1/N=N/c1ccc(N(C)CCCC(=O)NCCc2ccc(O[C@@H]3O[C@H](COCCCCn4cc(CNC(=O)[C@H](CCCCN(C)C)NC(=O)c5ccc(-c6c7ccc(=[N+](C)C)cc-7oc7cc(N(C)C)ccc67)c(C(=O)O)c5)nn4)[C@@H](O)[C@H](O)[C@H]3O)cc2)cc1
On the procedure: (§1) In-vitro kinetic assay for substrate 1. Continuous assays were performed at 30° C. in citrate-phosphate buffer (150 mM; pH 5.4) containing 0.25% taurodeoxycholate. The concentrations of substrate 1 used in assays were 0.39, 0.78, 1.56, 3.13 6.25, 12.5, 25 and 50 μM. Reactions were initiated by the addition of purified recombinant GCase (2.5 nM, R&D Systems) and the reaction was monitored continuously over 1200 seconds to determine the initial rate of change of fluorescence. Standard curves were constructed using BODIPY® Fl-acid using the same buffer conditions. […] Assays were carried out in triplicate.
as §1, with “Comparative In-vitro” for “In-vitro”, “substrate 3 and 9b.” for “substrate 1.”, “of substrates 3 and 9b” for “of substrate 1”, “were 0.156, 0.313, 0.625, 1.25, 2.5, 5, 10,” for “were 0.39, 0.78, 1.56, 3.13 6.25, 12.5, 25”, “and 20” for “and 50”, “using TAMRA and BODIPY-576” for “using BODIPY® Fl-acid”

Substrate in data set [2]: COc1cc(/N=N/c2ccc([N+](=O)[O-])cc2)c(OC)cc1/N=N/c1ccc(N(C)CCCC(=O)NCCCO[C@@H]2O[C@H](COCc3cn(CCNC(=O)CCC4=[N+]5C(=Cc6ccc(-c7ccc[nH]7)n6[B-]5(F)F)C=C4)nn3)[C@@H](O)[C@H](O)[C@H]2O)cc1
On the procedure: as §1
as §1, with “Comparative In-vitro” for “In-vitro”, “substrate 3 and 9b.” for “substrate 1.”, “of substrates 3 and 9b” for “of substrate 1”, “were 0.156, 0.313, 0.625, 1.25, 2.5, 5, 10,” for “were 0.39, 0.78, 1.56, 3.13 6.25, 12.5, 25”, “and 20” for “and 50”, “using TAMRA and BODIPY-576” for “using BODIPY® Fl-acid”

Substrate in data set [3]: COc1cc(/N=N/c2ccc(C)cc2[N+](=O)[O-])c(C)cc1/N=N/c1ccc(N(C)CCCC(=O)NCCCO[C@@H]2O[C@H](COCc3cn(CCCNC(=O)[C@H](CCCCN(C)C)NC(=O)CCC4=[N+]5C(=Cc6c(C)cc(C)n6[B-]5(F)F)C=C4)nn3)[C@@H](O)[C@H](O)[C@H]2O)cc1
As to the method:
as §1
as §1, with “Comparative In-vitro” for “In-vitro”, “substrate 3 and 9b.” for “substrate 1.”, “of substrates 3 and 9b” for “of substrate 1”, “were 0.156, 0.313, 0.625, 1.25, 2.5, 5, 10,” for “were 0.39, 0.78, 1.56, 3.13 6.25, 12.5, 25”, “and 20” for “and 50”, “using TAMRA and BODIPY-576” for “using BODIPY® Fl-acid”

B1: purified recombinant GCase (Homo sapiens) (protein)
chain: ARPCIPKSFGYSSVVCVCNATYCDSFDPPTFPALGTFSRYESTRSGRRMELSMGPIQANHTGTGLLLTLQPEQKFQKVKGFGGAMTDAAALNILALSPPAQNLLLKSYFSEEGIGYNIIRVPMASCDFSIRTYTYADTPDDFQLHNFSLPEEDTKLKIPLIHRALQLAQRPVSLLASPWTSPTWLKTNGAVNGKGSLKGQPGDIYHQTWARYFVKFLDAYAEHKLQFWAVTAENEPSAGLLSGYPFQCLGFTPEHQRDFIARDLGPTLANSTHHNVRLLMLDDQRLLLPHWAKVVLTDPEAAKYVHGIAVHWYLDFLAPAKATLGETHRLFPNTMLFASEACVGSKFWEQSVRLGSWDRGMQYSHSIITNLLYHVVGWTDWNLALNPEGGPNWVRNFVDSPIIVDITKDTFYKQPMFYHLGHFSKFIPEGSQRVGLVASQKNDLDAVALMHPDGSAVVVVLNRSSKDVPLTIKDPAVGFLETISPGYSIHTYLWRRQ
notes: purchased R&D Systems
The kcat/Km is the turnover number divided by the Michaelis constant. Turning to B1, the catalytic efficiency (kcat/Km) in data set [1] is 22670 M⁻¹ s⁻¹; in data set [2] it was 4350 M⁻¹ s⁻¹; in data set [3] it was 1300 ± 33 M⁻¹ s⁻¹.
